Target: the molecule itself
Experiment: crystal structure

B1: SsbB (natural protein, Bacillus subtilis, UniProt C0SPB6 1-113, looked up)
chain: MFNQVMLVGRLTKDPDLRYTSAGAAVAHVTLAVNRSFKNASGEIEADYVNCTLWRKTAENTALYCQKGSLVGVSGRIQTRSYENEEGVNVYVTEVLADTVRFMDPKPREKAAD
stoichiometry N: 4

Source: PMC3384303 (Nucleic Acids Research, 2012)
